Consider one substance from article PMC9972960.

The stoichiometry N is the number of molecules, sites or subunits per partner or assembly.

In assay [1] the target is purified vaccine protein with HA from influenza A/PR/8/1934 (H1N1), without the C-terminal trimerization domain (influenza A/PR/8/1934 (H1N1)) (UniProt P03452). In words: native gel or EMSA. On the technique in general: Mobility shift assays separate free from complexed probe on a gel.
For assay [2] the target is unchanged. In words: SEC. On the technique in general: SEC sorts molecules by how far they enter the pores of the column.

Take “purified vaccine protein with HA from influenza A/PR/8/1934 (H1N1), without the C-terminal trimerization domain (from UniProt P03452 18-541)”: the stoichiometry N in assay [1] and in assay [2] was 3 throughout.
